Data as given in US20030170785A1.

Biological target: CaV1.2 (α1C) L-type calcium channel subunit
Experiment: cell-based or functional assay

With calcium channel β3 subunit the Ca^2+ influx (fluorescence change after depolarization with 50 mM KCl) in transfected HEK 293 cells was 3 fold.
